2 substances from article PMC6510816 can be followed below.

For assay [1], the target named is YAP (UniProt P46937). Nature of the assay: Flag-14-3-3ζ co-IP, YAP blot. Conditions: reference: Flag-14-3-3ζ wild type; sites S37.
Assay [2] has as its target YAP (UniProt P46937). Nature of the assay: His-YAP Ni-NTA pull-down of Flag-14-3-3ζ IPs. Conditions: reference: wild type with rERK2; sites S37.

Consider “14-3-3ζ (from UniProt P63104) Flag-14-3-3ζ S37A”, for which the “binding against the reference” value in assay [1] is reported as “stronger”.

In the case of “14-3-3ζ (from UniProt P63104) S37A with rERK2”, the “binding against the reference” value in assay [2] is listed as “gained”.
